Tests used:
[1] = target: pure human iC3b (Complement Technology, A115) (human) (UniProt P01024); experiment: sandwich ELISA, capture A209 (Example 5), goat anti-C3-HRP; TABLE 7, iC3b in 20% vitreous
[2] = target: pure human iC3b (Complement Technology, A115) (human) (UniProt P01024); experiment: sandwich ELISA, capture A209 (Example 5), goat anti-C3-HRP; TABLE 6 well G4, 10% vitreous
[3] = target: pure human iC3b (Complement Technology, A115) (human) (UniProt P01024); experiment: sandwich ELISA, capture A209 (Example 5), goat anti-C3-HRP; TABLE 6 well D2, 30% vitreous
[4] = target: pure human iC3b (Complement Technology, A115) (human) (UniProt P01024); experiment: sandwich ELISA, capture A209 (Example 5), goat anti-C3-HRP; TABLE 6 well B9, blocker
[5] = target: pure human iC3b (Complement Technology, A115) (human) (UniProt P01024); experiment: sandwich ELISA, capture A209 (Example 5), goat anti-C3-HRP; TABLE 6 well F9, 20% vitreous
[6] = target: pure human iC3b (Complement Technology, A115) (human) (UniProt P01024); experiment: sandwich ELISA, capture A209 (Example 5), goat anti-C3-HRP; TABLE 6 well B3, blocker
[7] = target: pure human iC3b (Complement Technology, A115) (human) (UniProt P01024); experiment: sandwich ELISA, capture A209 (Example 5), goat anti-C3-HRP; TABLE 6 well F2, 20% vitreous
[8] = target: pure human iC3b (Complement Technology, A115) (human) (UniProt P01024); experiment: sandwich ELISA, capture A209 (Example 5), goat anti-C3-HRP; TABLE 6 well E7, 20% vitreous
[9] = target: pure human iC3b (Complement Technology, A115) (human) (UniProt P01024); experiment: sandwich ELISA, capture A209 (Example 5), goat anti-C3-HRP; TABLE 6 well C5, 30% vitreous
[10] = target: pure human iC3b (Complement Technology, A115) (human) (UniProt P01024); experiment: sandwich ELISA, capture A209 (Example 5), goat anti-C3-HRP; TABLE 6 well H6, 10% vitreous
[11] = target: pure human iC3b (Complement Technology, A115) (human) (UniProt P01024); experiment: sandwich ELISA, capture A209 (Example 5), goat anti-C3-HRP; TABLE 6 well C7, 30% vitreous
[12] = target: pure human iC3b (Complement Technology, A115) (human) (UniProt P01024); experiment: sandwich ELISA, capture A209 (Example 5), goat anti-C3-HRP; TABLE 6 well E4, 20% vitreous
[13] = target: pure human iC3b (Complement Technology, A115) (human) (UniProt P01024); experiment: sandwich ELISA, capture A209 (Example 5), goat anti-C3-HRP; TABLE 6 well C9, 30% vitreous
[14] = target: pure human iC3b (Complement Technology, A115) (human) (UniProt P01024); experiment: sandwich ELISA, capture A209 (Example 5), goat anti-C3-HRP; TABLE 6 well G5, 10% vitreous
[15] = target: pure human iC3b (Complement Technology, A115) (human) (UniProt P01024); experiment: sandwich ELISA, capture A209 (Example 5), goat anti-C3-HRP; TABLE 6 well A5, blocker
[16] = target: pure human iC3b (Complement Technology, A115) (human) (UniProt P01024); experiment: sandwich ELISA, capture A209 (Example 5), goat anti-C3-HRP; TABLE 6 well B8, blocker
[17] = target: pure human iC3b (Complement Technology, A115) (human) (UniProt P01024); experiment: sandwich ELISA, capture A209 (Example 5), goat anti-C3-HRP; TABLE 6 well A2, blocker
[18] = target: pure human iC3b (Complement Technology, A115) (human) (UniProt P01024); experiment: sandwich ELISA, capture A209 (Example 5), goat anti-C3-HRP; TABLE 6 well H4, 10% vitreous
[19] = target: pure human iC3b (Complement Technology, A115) (human) (UniProt P01024); experiment: sandwich ELISA, capture A209 (Example 5), goat anti-C3-HRP; TABLE 6 well C4, 30% vitreous
[20] = target: pure human iC3b (Complement Technology, A115) (human) (UniProt P01024); experiment: sandwich ELISA, capture A209 (Example 5), goat anti-C3-HRP; TABLE 6 well B5, blocker
[21] = target: pure human iC3b (Complement Technology, A115) (human) (UniProt P01024); experiment: sandwich ELISA, capture A209 (Example 5), goat anti-C3-HRP; TABLE 6 well E3, 20% vitreous
[22] = target: pure human iC3b (Complement Technology, A115) (human) (UniProt P01024); experiment: sandwich ELISA, capture A209 (Example 5), goat anti-C3-HRP; TABLE 6 well D9, 30% vitreous
[23] = target: pure human iC3b (Complement Technology, A115) (human) (UniProt P01024); experiment: sandwich ELISA, capture A209 (Example 5), goat anti-C3-HRP; TABLE 6 well H7, 10% vitreous
[24] = target: pure human iC3b (Complement Technology, A115) (human) (UniProt P01024); experiment: sandwich ELISA, capture A209 (Example 5), goat anti-C3-HRP; TABLE 7, iC3b in blocker

UniProt P01024, sequence (P01024 23-667 limits assumed, chain 1 of 3): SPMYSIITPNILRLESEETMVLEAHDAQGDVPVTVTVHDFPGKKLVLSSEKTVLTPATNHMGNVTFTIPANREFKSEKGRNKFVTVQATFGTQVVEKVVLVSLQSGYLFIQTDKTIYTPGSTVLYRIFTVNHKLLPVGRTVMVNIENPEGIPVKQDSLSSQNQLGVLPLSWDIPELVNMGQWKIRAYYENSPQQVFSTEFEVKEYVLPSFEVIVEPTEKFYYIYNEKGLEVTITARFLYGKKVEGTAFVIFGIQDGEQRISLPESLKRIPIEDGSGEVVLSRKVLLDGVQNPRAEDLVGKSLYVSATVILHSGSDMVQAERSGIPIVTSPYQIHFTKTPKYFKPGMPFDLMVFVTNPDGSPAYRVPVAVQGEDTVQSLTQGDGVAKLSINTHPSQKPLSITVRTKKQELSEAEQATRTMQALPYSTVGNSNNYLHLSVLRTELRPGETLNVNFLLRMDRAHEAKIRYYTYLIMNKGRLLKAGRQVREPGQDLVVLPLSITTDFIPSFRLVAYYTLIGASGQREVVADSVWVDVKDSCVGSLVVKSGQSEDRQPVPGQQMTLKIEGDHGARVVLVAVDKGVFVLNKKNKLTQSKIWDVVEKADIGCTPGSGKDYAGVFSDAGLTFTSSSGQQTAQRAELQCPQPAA
UniProt P01024, sequence (P01024 749-1303 limits assumed, chain 2 of 3): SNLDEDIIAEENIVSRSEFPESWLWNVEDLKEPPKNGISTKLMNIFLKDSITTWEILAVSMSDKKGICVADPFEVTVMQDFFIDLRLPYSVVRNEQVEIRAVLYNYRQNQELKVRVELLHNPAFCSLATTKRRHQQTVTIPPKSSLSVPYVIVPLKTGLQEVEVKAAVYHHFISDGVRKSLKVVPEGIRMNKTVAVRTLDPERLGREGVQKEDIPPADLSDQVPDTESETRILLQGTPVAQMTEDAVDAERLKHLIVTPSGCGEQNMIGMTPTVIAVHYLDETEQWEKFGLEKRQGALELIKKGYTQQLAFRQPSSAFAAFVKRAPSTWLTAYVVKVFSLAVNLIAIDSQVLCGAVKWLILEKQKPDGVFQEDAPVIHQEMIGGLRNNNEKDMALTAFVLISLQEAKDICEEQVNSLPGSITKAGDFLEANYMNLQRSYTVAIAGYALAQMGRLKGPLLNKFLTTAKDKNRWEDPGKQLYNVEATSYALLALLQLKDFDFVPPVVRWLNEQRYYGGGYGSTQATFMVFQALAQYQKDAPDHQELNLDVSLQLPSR
UniProt P01024, sequence (P01024 1321-1663 limits assumed, chain 3 of 3): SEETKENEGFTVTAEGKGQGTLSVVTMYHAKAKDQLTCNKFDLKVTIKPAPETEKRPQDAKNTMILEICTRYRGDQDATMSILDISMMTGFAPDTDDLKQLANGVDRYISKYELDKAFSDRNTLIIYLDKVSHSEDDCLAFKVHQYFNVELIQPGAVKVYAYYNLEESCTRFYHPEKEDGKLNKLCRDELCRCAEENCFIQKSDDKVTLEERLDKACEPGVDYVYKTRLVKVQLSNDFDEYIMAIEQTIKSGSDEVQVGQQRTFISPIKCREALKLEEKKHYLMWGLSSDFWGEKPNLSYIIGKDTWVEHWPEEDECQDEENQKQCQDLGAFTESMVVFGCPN

A450 minus matrix average at iC3b 0.0078 ug/ml [1]: -0.002 OD | A450 minus matrix average at iC3b 0.016 ug/ml [1]: 0 OD | A450 minus matrix average at iC3b 0.031 ug/ml [1]: 0.012 OD | A450 minus matrix average at iC3b 0.063 ug/ml [1]: 0.03 OD | A450 minus matrix average at iC3b 0.25 ug/ml [1]: 0.099 OD | A450 minus matrix average at iC3b 0.5 ug/ml [1]: 0.122 OD | A450 minus matrix average at iC3b 1 ug/ml [1]: 0.182 OD | raw A450 at iC3b 0.25 ug/ml [2]: 0.28 OD | raw A450 at iC3b 1 ug/ml [3]: 0.453 OD | raw A450 at iC3b 0.0078 ug/ml [4]: 0.032 OD | raw A450 at iC3b 0.0078 ug/ml [5]: 0.38 OD | raw A450 at iC3b 0.5 ug/ml [6]: 0.265 OD | raw A450 at iC3b 1 ug/ml [7]: 0.527 OD | raw A450 at iC3b 0.031 ug/ml [8]: 0.339 OD | raw A450 at iC3b 0.125 ug/ml [9]: 0.385 OD | raw A450 at iC3b 0.063 ug/ml [10]: 0.23 OD | raw A450 at iC3b 0.031 ug/ml [11]: 0.355 OD | raw A450 at iC3b 0.25 ug/ml [12]: 0.411 OD | raw A450 at iC3b 0.0078 ug/ml [13]: 0.368 OD | raw A450 at iC3b 0.125 ug/ml [14]: 0.274 OD | raw A450 at iC3b 0.125 ug/ml [15]: 0.106 OD | raw A450 at iC3b 0.016 ug/ml [16]: 0.038 OD | raw A450 at iC3b 1 ug/ml [17]: 0.371 OD | raw A450 at iC3b 0.25 ug/ml [18]: 0.283 OD | raw A450 at iC3b 0.25 ug/ml [19]: 0.391 OD | raw A450 at iC3b 0.125 ug/ml [20]: 0.1 OD | raw A450 at iC3b 0.5 ug/ml [21]: 0.442 OD | raw A450 at iC3b 0.0078 ug/ml [22]: 0.362 OD | raw A450 at iC3b 0.031 ug/ml [23]: 0.231 OD | A450 minus matrix average at iC3b 0.016 ug/ml [24]: 0.011 OD | A450 minus matrix average at iC3b 0.031 ug/ml [24]: 0.021 OD | A450 minus matrix average at iC3b 0.063 ug/ml [24]: 0.037 OD | A450 minus matrix average at iC3b 0.125 ug/ml [24]: 0.073 OD | A450 minus matrix average at iC3b 0.25 ug/ml [24]: 0.138 OD | A450 minus matrix average at iC3b 0.5 ug/ml [24]: 0.232 OD | A450 minus matrix average at iC3b 1 ug/ml [24]: 0.328 OD
Substance: mouse anti-iC3b antibody A209 (Quidel)

From patent publication US20160153985A1
